First the molecules themselves.
B1: SA2285 (antibody, V domains shown)
VH: QVTLRESGPTLVKPTQTLTLTCTFRGFSLNTPGMGVAWIRQPPGKALEWLGLVFWDDDKTYRPSLRNRLTITKETSKSQVVLTMTNMDPVDTATYYCARIRGYYDWGSYYSYGMDVWGQGTTVTVSS
VL: SYELTQPLSVSVALGQTARITCGGNNIGSKNVHWYQQKPGQAPVLVIYRDSNRPSGIPERFSGSNSGNTATLTISGVEAGDEADYYCQVWDSNSDQYVFGTGSKVTVL
B2: SA2386 (antibody, V domains shown)
VH: QVQLVESGGGLVKPGGSLRLSCAASGSTFRVAWVNWVRQAPGKGLEWVGRIKSNSDGGTTDYATPMKDRFIISRDDSKNTVFLQMNSLRAEDTAVYYCARHGDANAYYYGMDVWGQGTKVTVSS
VL: QSALTQPASVSGSPGQSITISCTGTSSDVGGYNYISWYQQHPGKAPRLLIYDVSDRPSGVSNRFSGSKSANTASLTISGLQAEDEADYYCSSYASSSTLYVFGTGTKVTVL
B3: SA2390 (antibody, V domains shown)
VH: QVQLVESGGGLVQPGRSLRLSCAASGFTFDDYAMHWVRQAPGKGLEWISGISWNSGNIVYADSVKGRFTISRDNAKNSLYLQMNSLRAEDTAVYYCARETALAFDMWGPGTMVTVSS
VL: DIQMTQSPSSVSASVGDRVTITCRASQGISYWLAWYQQKPGIAPKLLIFASSRLHSGVPSRFNGSGSGTDFTLTINSLQPEDFATYYCLQATSFPYTFGQGTKLEIK
B4: SA2291 (antibody, V domains shown)
VH: QMQLVESGGGLVKPGGSLRLSCAASGFTFSDHYMSWIRQAPGKGLEWVSSISSGGGTIYYADSVKGRFTISRDNAKNSLYLQMNSLRAEDTAVYYCARREYDSDGHYYFDYWGQGILVTVSS
VL: SYELTQPPSVLVSPGQTARITCSGDALPKQYAYWYQQKPGQAPVLVMYKDNVRPSGIPERFSGSSSGTTVTLTISRVQAEDEADYYCQSVDSSDTSVVFGGGTKLTVL
B5: SA2455 (antibody, V domains shown)
VH: QMQLVESGGGLVKPGGSLRLSCAASGFTFSDYYMSWIRQAPGKGLEWVSYISSSGSTIYYADSVKGRFTISRDNAKNSLYLQMNSLRAEDTAVYYCARPGYYYGLDVWGQGTTVTVSS
VL: DIQMTQSPSTLSASVGDRVTITCRASQSISSWLAWYQQKPGIAPKLLIYQASILDSGVPSRFSGSGSGTEFTLTISSLQPDDFATYYCQQYSSLWTFGPGTKVDIK
B6: SA2283 (antibody, V domains shown)
VH: QVQLVESGGGLVKPGGSLRLSCAASGFTFSDYYMSWIRQAPGKGLEWVSYISSSGSTIYYADSVKGRFTISRDNAKNSLYLQMNSLRAEDTAVYYCARRYSAYETGYFDFWGQGTLVTVSS
VL: DIQMTQSPSSLSASVGDRVTITCRASQGISTYLNWYQQKPGKAPKLLIYSTSTLQTGVPSRFSGGGSGTDFTLTISSLQPEDFATYYCQQSYSAPPTFGPGTKVEIK
B7: SA2287 (antibody, V domains shown)
VH: QVQLVESGGGVVQPGRSLRLSCAASGFTFSSRGMHWVRQAPGKGLEWVALIWYHGSDDSYADSVKGRFTISRDNSKNMVYLQMNSLRAEDTAVYYCANLGATDGFDIWGQGTVVTVSS
VL: QSALTQPASVSGSPGQSITISCTGTSSDVSAYNYVSWYQQHPGKAPKLMIYGVSDRPSGVSFRFSGSKSGNTASLTISGLQAEDEAYYYCNSYTTSNTWVFGGGTKLTVL
B8: SA1956 (antibody, V domains shown)
VH: QVTLKESGPTLVKPTQTLTLTCTFSGFSLTTSGVAVAWIRQPPGKALEWLALIYWDGDERYSSSLKNRLTITKDTSKSQVVLTMTNMDPVDTATYYCARIRGYYDWGSYYSYGMDVWGQGTTVTVSS
VL: SYELTQPLSVSVALGQTARITCGGNNIGSKNVHWYQQKPGQAPVLVIYRDSNRPSGIPERFSGSNSGNTATLTISRAQAGDEADYYCQVWDSSTHVVFGGGTKLTVL
B9: SA1957 (antibody, V domains shown)
VH: QVTLRESGPTLVKPTQTLTLTCTFSGFSFNTPGEGVTWIRQPPGKALEWLALIYWDDEKHYNPSLNGRLTITKDTSKSQVVLTMTNMDPVDTATYYCARIRGYYDWGSYYSYGMDVWGQGTTITVSS
VL: SYELTQPLSVSVALGQTARITCGGNNIGSKNVHWYQQKPGQAPVLVIYRDSNRPSGIPERFSGSNSGDTATLTISGAQAGDEADYYCQVWDSSTHVVFGGGTKLTVL
B10: SA1975 (antibody, V domains shown)
VH: QVQLVESGAEIKKPGASMNVSCKASGYIFTNYYIHWVRQAPGQGLEWIGIIDPSGGSTTYAQKFQHRVTMTSDTSTSTVYMELIGLGSEDTAVYYCARDYWGSLDYWGQGTLVTVSS
VL: NFMLTQPHSVSESPGKTVTISCTRSSGSIASNYVQWYQQRPGSAPTIVIYENYLRPSEVPDRFSGSIDSSSNSASLTISGLKTEDEGDYYCQSYDSRNRNYVFGTGTKVTVL
B11: SA2290 (antibody, V domains shown)
VH: QMQLVESGAEVKKPGASVKVSCKASGYTFTSYGISWVRQAPGQGLEWMGWISAYNGNTNYAQKLQGRVTMTTDTSTSTAYMELRSLRSEDTAVYYCARDYWGSLDHWGQGALVTVSS
VL: NFMLTQPHSVSGSPGKTVTISCTRSSGSIDINYVQWYQQRPGSAPTIIIYEDSQRTSGVPDRFSGSIDRSSNSASLTISGLKTEDEGDYYCQSYDSRNRNYVFGTGTKVTVL

The assay addresses T1, hVSIG4(S)-hFc (human).
T1 construct: also called VGIG4(S)-Fc; hVSIG4 short-hFc (S)
Kind of assay: western blot, 100 ng hVSIG4 short-hFc (FIG. 11B). In general terms: A western blot detects proteins with antibodies after separation by electrophoresis.
Description: (A) Binding to hVSIG4(S) and hVSIG4(L) was assayed by ELISA with the original scFv versions of the 11 human anti-VSIG4 antibodies. (B) Binding to hVSIG4(S) and hVSIG4(L) was assayed by western blotting with the 11 full-length human anti-VSIG4 antibodies. NRH: Non-reduced, heated; RH: Reduced, heated.
In each case, 100 ng of hVSIG4 long-hFc (L) and hVSIG4 short-hFc (S) were probed with the specific anti-VSIG4 antibody.
For the molecule B1, the binding result is “binds”.
Take B2: the binding result is given as “binds”.
For B3, the binding result is recorded as “binds”.
For B4, the binding result is reported as “binds”.
Next, B5: “binds”; B6: “binds”.
As for B7, the binding result is given as “binds”.
Consider B8, for which the binding result is reported as “binds”.
With B9, the binding result is “binds”.
Regarding B10, the binding result is reported as “binds”.
Next, B11: “binds”.

Values taken from patent US20220306736A1 (Y BIOLOGICS, published 2022).
